Results published in US20120316071A1 (published 2012).

B1: Fab VH3-23_IGHD2-21*01>3_IGHJ6*01 H100E/S108P/Y113G Y110I & V2-13_IGLJ2*01 (Fab, V domains shown)
VH: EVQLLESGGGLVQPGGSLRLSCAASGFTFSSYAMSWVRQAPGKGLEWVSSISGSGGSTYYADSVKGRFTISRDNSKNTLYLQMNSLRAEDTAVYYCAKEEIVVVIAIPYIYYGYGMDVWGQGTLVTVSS
VL: SSELTQDPAVSVALGQTVRITCQGDSLRSYYASWYQQKPGQAPVLVIYGKNNRPSGIPDRFSGSSSGNTASLTITGAQAEDEADYYCNSRDSSGNHLVVFGGGTKLTVL
notes: Tested as Fab made in E. coli: VH joined to CH1 (His and Flag tags), VL joined to lambda CL; also called EPG Y110I
B2: Fab VH3-23_IGHD2-21*01>3_IGHJ6*01 H100E/S108P/Y113G Y114I & V2-13_IGLJ2*01 (Fab, V domains shown)
VH: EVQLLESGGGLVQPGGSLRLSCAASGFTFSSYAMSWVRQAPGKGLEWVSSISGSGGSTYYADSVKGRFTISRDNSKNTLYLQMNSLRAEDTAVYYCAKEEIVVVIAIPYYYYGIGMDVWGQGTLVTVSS
VL: B1 VL
notes: Tested as Fab made in E. coli (VH-CH1 with His and Flag tags; lambda CL); also called EPG Y114I
B3: Fab VH3-23_IGHD2-21*01>3_IGHJ6*01 H100E/S108P/Y113G Y114W & V2-13_IGLJ2*01 (Fab, V domains shown)
VH: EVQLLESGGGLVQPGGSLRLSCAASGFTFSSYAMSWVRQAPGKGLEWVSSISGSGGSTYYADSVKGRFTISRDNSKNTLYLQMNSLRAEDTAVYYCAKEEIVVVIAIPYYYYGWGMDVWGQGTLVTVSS
VL: B1 VL
notes: Tested as Fab made in E. coli (VH-CH1 with His and Flag tags; lambda CL); also called EPG Y114W
B4: Fab VH3-23_IGHD2-21*01>3_IGHJ6*01 H100E/S108P/Y113G Y110W & V2-13_IGLJ2*01 (Fab, V domains shown)
VH: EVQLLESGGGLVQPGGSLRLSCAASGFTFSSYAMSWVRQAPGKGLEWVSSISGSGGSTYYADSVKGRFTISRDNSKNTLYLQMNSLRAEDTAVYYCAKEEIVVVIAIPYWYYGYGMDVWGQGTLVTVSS
VL: B1 VL
notes: Tested as Fab made in E. coli: VH joined to CH1 (His and Flag tags), VL joined to lambda CL; also called EPG Y110W
B5: Fab VH3-23_IGHD2-21*01>3_IGHJ6*01 H100E/S108P/Y113G/Y111W & V2-13_IGLJ2*01 (Fab, V domains shown)
VH: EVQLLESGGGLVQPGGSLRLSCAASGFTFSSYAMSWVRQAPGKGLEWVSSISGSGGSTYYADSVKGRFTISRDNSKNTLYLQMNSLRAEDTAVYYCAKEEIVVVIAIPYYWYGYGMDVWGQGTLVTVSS
VL: B1 VL
notes: Fab made in E. coli: VH joined to CH1 (with His and Flag tags, plasmid A) and VL to lambda CL (plasmid E); also called EPG Y111W
B6: Fab VH3-23_IGHD2-21*01>3_IGHJ6*01 H100E/S108P/Y113G Y114S & V2-13_IGLJ2*01 (Fab, V domains shown)
VH: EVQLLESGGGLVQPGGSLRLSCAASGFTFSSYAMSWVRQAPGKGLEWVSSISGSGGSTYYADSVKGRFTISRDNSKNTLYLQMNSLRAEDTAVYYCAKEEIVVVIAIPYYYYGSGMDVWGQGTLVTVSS
VL: B1 VL
notes: Tested as Fab made in E. coli (VH-CH1 with His and Flag tags; lambda CL); also called EPG Y114S
B7: Fab VH3-23_IGHD2-21*01>3_IGHJ6*01 H100E/S108P/Y113G Y114N & V2-13_IGLJ2*01 (Fab, V domains shown)
VH: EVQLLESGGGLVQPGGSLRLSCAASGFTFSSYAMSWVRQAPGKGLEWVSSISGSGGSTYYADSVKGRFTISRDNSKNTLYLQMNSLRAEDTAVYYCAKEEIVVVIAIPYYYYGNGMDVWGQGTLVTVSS
VL: B1 VL
notes: Tested as Fab made in E. coli (VH-CH1 with His and Flag tags; lambda CL); also called EPG Y114N
B8: Fab VH3-23_IGHD2-21*01>3_IGHJ6*01 H100E/S108P/Y113G Y112G & V2-13_IGLJ2*01 (Fab, V domains shown)
VH: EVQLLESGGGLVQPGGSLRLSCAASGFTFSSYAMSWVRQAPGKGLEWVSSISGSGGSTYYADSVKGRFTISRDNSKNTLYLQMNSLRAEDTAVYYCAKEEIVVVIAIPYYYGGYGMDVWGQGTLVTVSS
VL: B1 VL
notes: Tested as Fab made in E. coli (VH-CH1 with His and Flag tags; lambda CL); also called EPG Y112G
B9: Fab VH3-23_IGHD2-21*01>3_IGHJ6*01 H100E/S108P/Y113G Y112R & V2-13_IGLJ2*01 (Fab, V domains shown)
VH: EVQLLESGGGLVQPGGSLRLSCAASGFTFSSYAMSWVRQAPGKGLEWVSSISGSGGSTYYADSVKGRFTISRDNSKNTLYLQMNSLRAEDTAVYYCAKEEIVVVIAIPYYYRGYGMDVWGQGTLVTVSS
VL: B1 VL
notes: Tested as Fab made in E. coli (VH-CH1 with His and Flag tags from plasmid A; lambda CL from plasmid E); also called EPG Y112R

Columns and labels:
[1] = molecular target: T1, rHuman ErbB2/Fc Chimera, CF (R&D Systems Cat#1129-ER) (human, UniProt P04626 23-652); experiment: ECL multispot (MSD) binding assay, antigens spotted on plate, 20 nM Fab;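 also: fab incubated 1 h at 20 °C on antigen-spotted wells, bound Fab detected by TAG-labelled antibody, ratio of 4 or more over blank counted as a hit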
T1 construct: Bought recombinant protein; also called human epidermal growth factor 2 receptor; Fc part of the bought chimera not given

[2] = molecular target: T2, rHuman EGF R/Fc Chimera, CF (R&D Systems Cat#344-ER) (human, UniProt P00533 25-645); experiment: as above
T2 construct: Bought recombinant protein; also called epidermal growth factor receptor; Fc part of the bought chimera not given

[3] = molecular target: T3, rHuman CD44/Fc Chimera, CF (R&D Systems Cat#3660-CD) (human, UniProt P16070 21-220); experiment: as above
T3 construct: Bought recombinant protein; Fc part of the bought chimera not given

[4] = molecular target: T4, rHuman IGF-1 sR, (IGF-1 sR), CF (R&D Systems Cat#391-GR) (human, UniProt P08069 31-932); experiment: as above
T4 construct: Bought recombinant soluble receptor; The column head prints only 'IGF-1'; also called insulin-like growth factor-1 soluble receptor

[5] = molecular target: T5, rHuman P-Cadherin/Fc Chimera, CF (R&D Systems Cat#861-PC) (human, UniProt P22223 108-654); experiment: as above
T5 construct: Bought recombinant protein; Fc part of the bought chimera not given

[6] = molecular target: T6, rHuman Erythropoietin R/Fc Chimera, CF (R&D Systems Cat#963-ER) (human, UniProt P19235 25-250); experiment: as above
T6 construct: Bought recombinant protein; also called EPO R; Epo R; Fc part of the bought chimera not given
T6 sequence (looked up): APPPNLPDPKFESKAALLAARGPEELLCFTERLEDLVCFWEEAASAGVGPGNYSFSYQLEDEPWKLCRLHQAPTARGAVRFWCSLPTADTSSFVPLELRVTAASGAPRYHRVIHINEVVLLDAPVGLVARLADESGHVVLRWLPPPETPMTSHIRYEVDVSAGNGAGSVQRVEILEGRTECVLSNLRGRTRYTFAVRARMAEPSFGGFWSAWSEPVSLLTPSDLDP

[7] = molecular target: T7, Recombinant Human DLL4 (R&D Systems Cat#1506-D4/CF) (human, UniProt Q9NR61 27-524); experiment: as above
T7 construct: Bought recombinant protein; also called delta-like protein 4; rHuman DLL4

[8] = molecular target: T8, rHuman ErbB2/Fc Chimera, CF (R&D Systems Cat#1129-ER) (human, UniProt P04626 23-652); experiment: ECL (MSD) multispot binding assay, antigen spotted on plate, 20 nM Fab;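 also: purified Fab incubated 1 h at 20 °C on antigen-spotted plate, bound Fab revealed with TAG detection antibody, ECL read, antigen signal divided by same-well blank, ratio ≥4 counted as hit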
T8 construct: Bought reagent; also called human epidermal growth factor 2 receptor; Fc part of the bought chimera not given

[9] = molecular target: T9, rHuman EGF R/Fc Chimera, CF (R&D Systems Cat#344-ER) (human, UniProt P00533 25-645); experiment: as above
T9 construct: Bought reagent; also called epidermal growth factor receptor; Fc part of the bought chimera not given

[10] = molecular target: T10, rHuman Notch-1/Fc Chimera, CF (R&D Systems Cat#3647-TK) (human, UniProt P46531 19-526); experiment: as above
T10 construct: Bought reagent; Fc part of the bought chimera not given

[11] = molecular target: T11, rHuman CD44/Fc Chimera, CF (R&D Systems Cat#3660-CD) (human, UniProt P16070 21-220); experiment: as above
T11 construct: Bought reagent; Fc part of the bought chimera not given

[12] = molecular target: T12, rHuman IGF-1 sR, CF (R&D Systems Cat#391-GR) (human, UniProt P08069 31-932); experiment: as above
T12 construct: Bought soluble receptor; also called insulin-like growth factor-1 soluble receptor

[13] = molecular target: T13, rHuman P-Cadherin/Fc Chimera, CF (R&D Systems Cat#861-PC) (human, UniProt P22223 108-654); experiment: as above
T13 construct: Bought reagent; Fc part of the bought chimera not given

[14] = molecular target: T14, rHuman Erythropoietin R/Fc Chimera, CF (R&D Systems Cat#963-ER) (human, UniProt P19235 25-250); experiment: as above
T14 construct: Bought reagent; also called EPO R; EPO R/Fc; Fc part of the bought chimera not given
T14 sequence (looked up): T6 sequence (looked up)

[15] = molecular target: T15, Recombinant Human DLL4 (R&D Systems Cat#1506-D4/CF) (human, UniProt Q9NR61 27-524); experiment: as above
T15 construct: Bought recombinant protein; also called delta-like protein 4; rHuman DLL4

[16] = molecular target: T16, rHuman ErbB2/Fc Chimera, CF (R&D Systems Cat#1129-ER) (human, UniProt P04626 23-652); experiment: as above
T16 construct: Bought recombinant protein; also called human epidermal growth factor 2 receptor; Fc part of the bought chimera not given

[17] = molecular target: T17, rHuman EGF R/Fc Chimera, CF (R&D Systems Cat#344-ER) (human, UniProt P00533 25-645); experiment: as above
T17 construct: Bought recombinant protein; also called epidermal growth factor receptor; Fc part of the bought chimera not given

[18] = molecular target: T18, rHuman IGF-1 sR, (IGF-1 sR), CF (R&D Systems Cat#391-GR) (human, UniProt P08069 31-932); experiment: as above
T18 construct: Bought recombinant soluble receptor; also called insulin-like growth factor-1 soluble receptor

[19] = molecular target: T19, rHuman P-Cadherin/Fc Chimera, CF (R&D Systems Cat#861-PC) (human, UniProt P22223 108-654); experiment: as above
T19 construct: Bought recombinant protein; Fc part of the bought chimera not given

[20] = molecular target: T20, Recombinant Human DLL4 (R&D Systems Cat#1506-D4/CF) (human, UniProt Q9NR61 27-524); experiment: as above; remark: listed apart in the source
T20 construct: Bought recombinant protein; also called delta-like protein 4; rHuman DLL4

Binder	ECL multispot value [8]	ECL multispot value [9]	ECL multispot value [10]	ECL multispot value [11]	ECL multispot value [12]	ECL multispot value [13]	ECL multispot value [14]	ECL multispot value [15]	further results
B1	–	–	–	–	–	–	–	–	ECL multispot signal (ratio to blank; column not labelled) [1]: 11.4; ECL multispot signal (ratio to blank; column not labelled) [2]: 8.6; ECL multispot signal (ratio to blank; column not labelled) [3]: 1.7; ECL multispot signal (ratio to blank; column not labelled) [4]: 1.4; ECL multispot signal (ratio to blank; column not labelled) [5]: 39; ECL multispot signal (ratio to blank; column not labelled) [6]: 73.7; ECL multispot signal (ratio to blank; column not labelled) [7]: 2
B2	11.4	7.1	2.6	1.8	1.4	22.6	162	2.4	–
B3	9.3	6.6	2.2	1.6	1.1	16.7	–	1.9	–
B4	–	–	–	–	–	–	–	–	ECL multispot signal (ratio to blank; column not labelled) [1]: 16.5; ECL multispot signal (ratio to blank; column not labelled) [2]: 7.6; ECL multispot signal (ratio to blank; column not labelled) [5]: 38.8; ECL multispot signal (ratio to blank; column not labelled) [6]: 117
B5	–	–	–	–	–	–	–	–	ECL signal/blank ratio [16]: 26.5; ECL signal/blank ratio [17]: 16.3; ECL signal/blank ratio [18]: 1.4; ECL signal/blank ratio [19]: 49.2; ECL signal/blank ratio [20]: 2.8
B6	8.7	5	2.9	1.4	1.3	15.8	68.5	2.2	–
B7	–	2.6	2	1.2	1.2	5.9	35	1.6	–
B8	1.4	1.7	2.1	1.2	1	2.3	7.9	1.3	–
B9	5.9	–	2.7	1.6	1.5	30	85.1	2.6	–
